This experiment concerns the target T1, 弓形虫重组SAG1蛋白(表面膜抗原1) (Toxoplasma gondii, UniProt P13664 48-306, limits assumed).
T1 construct: The vector tag (pET28a, Ni-NTA purified) is not described; In the BLI programme the loading step is called biotinylated antigen, but the sensor is APS; also called SAG1-m; SAG1重组抗原
T1 sequence (looked up): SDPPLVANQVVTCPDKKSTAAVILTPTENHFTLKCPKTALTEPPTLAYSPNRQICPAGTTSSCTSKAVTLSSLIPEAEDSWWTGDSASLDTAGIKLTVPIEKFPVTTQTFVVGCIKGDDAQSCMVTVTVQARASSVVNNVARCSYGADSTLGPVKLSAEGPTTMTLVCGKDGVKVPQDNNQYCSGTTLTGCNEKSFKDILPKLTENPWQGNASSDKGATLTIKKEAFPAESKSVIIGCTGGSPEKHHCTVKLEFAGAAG
The experiment in a line: BLI (ForteBio Octet Red), SAG1 on APS sensor, nanobody at 6.25-100 nM.

B1: 1号克隆株抗SAG1纳米抗体 (VHH)
VHH: HVQLVESGGGSVQAGGSLKLSCTASGYTSNNNCMAWYRQAPGKEPEGVAGIDSEGTTRYADSVKGRFTISKDNAKNTLYLQMNSLKPEDTGMYYCGAGPDRPARCQYDVWGQGTQVTVSS
notes: Tags or fusion parts from the vectors are not described; also called SAG1-1; 一号克隆株抗SAG1纳米抗体
What is called Kd is the free concentration of one partner at which half of the binding sites on the other are occupied at equilibrium, for simple one-to-one binding. Low values mean higher affinity, high ones lower affinity. In turn, B1 returned a Kd of 1.66 nM.

The values are drawn from patent CN108503707A (ZHEJIANG ACAD MEDICAL SCIENCES, dated 2018).
